This assay concerns the target T1, recombinant human Rnase inhibitor (human, UniProt P13489 1-461).
T1 sequence (looked up): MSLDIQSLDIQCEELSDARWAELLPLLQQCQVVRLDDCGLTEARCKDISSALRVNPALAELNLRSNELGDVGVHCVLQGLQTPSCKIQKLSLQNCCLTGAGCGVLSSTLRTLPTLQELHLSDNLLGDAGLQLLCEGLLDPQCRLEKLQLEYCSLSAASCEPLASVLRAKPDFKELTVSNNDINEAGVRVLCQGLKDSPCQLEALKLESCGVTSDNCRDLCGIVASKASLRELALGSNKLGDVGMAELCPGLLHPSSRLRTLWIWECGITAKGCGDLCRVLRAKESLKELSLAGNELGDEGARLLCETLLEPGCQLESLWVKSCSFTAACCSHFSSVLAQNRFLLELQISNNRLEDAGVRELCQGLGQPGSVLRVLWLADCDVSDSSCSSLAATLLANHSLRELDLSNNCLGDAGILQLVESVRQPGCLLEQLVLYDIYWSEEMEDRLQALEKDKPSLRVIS

B1: pyronin-conjugated bovine Rnase A (enzyme, UniProt P61823 27-150, looked up)
chain: KETAAAKFERQHMDSSTSAASSSNYCNQMMKSRNLTKDRCKPVNTFVHESLADVQAVCSQKNVACKNGQTNCYQSYSTMSITDCRETGSSKYPNCAYKTTQANKHIIVACEGNPYVPVHFDASV
modifications: lysines conjugated to the fluorinated pyronin from bromopyronin 5; 0.3-0.6 fluorophores per protein
As for B1, the binding result was “binds”.

The values above are taken from article PMC4004224 (Journal of the American Chemical Society, 2014).
